Reference: article PMC5963890
Several values for one entry are separate records, joined by “and”; a condition that tells them apart may be missing. Equal entries are not always repeated.

Key:
[1] = target: G20c portal protein L49C conjugated with maleimide-porphyrin (bacteriophage G20c); assay: SEC
[2] = target: G20c portal protein L49C single mutant (bacteriophage G20c); assay: negative-stain transmission electron microscopy
[3] = target: G20c portal protein L49C/V325G/I328G conjugated with maleimide-porphyrin (bacteriophage G20c); assay: SEC
[4] = target: G20c portal protein L49C/V325G/I328G triple mutant (bacteriophage G20c); assay: negative-stain transmission electron microscopy
[5] = target: G20c portal protein V325G mutant (bacteriophage G20c); assay: crystal structure
[6] = target: G20c portal protein V325G/I328G double mutant (bacteriophage G20c); assay: X-ray diffraction, self-rotation function

For “G20c portal protein L49C conjugated with maleimide-porphyrin (natural protein)”, the stoichiometry N [1] was 12 and 24.
In the case of “G20c portal protein L49C single mutant (natural protein)”, the stoichiometry N [2] is reported as 12.
With “G20c portal protein L49C/V325G/I328G conjugated with maleimide-porphyrin (natural protein)” the stoichiometry N [3] was 12 and 24.
For “G20c portal protein L49C/V325G/I328G triple mutant (natural protein)”, the stoichiometry N [4] was 12.
“G20c portal protein V325G mutant (natural protein)” showed a stoichiometry N [5] of 12.
For “G20c portal protein V325G/I328G double mutant (natural protein)”, the stoichiometry N [6] was 12.
